{
  "source": "patent US5928915A",
  "about": "“CHO cell sialidase by recombinant DNA technology” (Genentech, Inc., priority 1997, dated 1999)",
  "target": "T1, CHO cell sialidase (Cricetulus griseus, UniProt Q64393)",
  "T1 construct": "The sialidase described was purified from the cell culture fluid of a single production cell line (CHO 14.16); endogenous in cells; host or cells: CHO 14.16 cells (purified from the cell culture fluid)",
  "T1 sequence (Q64393 whole entry)": "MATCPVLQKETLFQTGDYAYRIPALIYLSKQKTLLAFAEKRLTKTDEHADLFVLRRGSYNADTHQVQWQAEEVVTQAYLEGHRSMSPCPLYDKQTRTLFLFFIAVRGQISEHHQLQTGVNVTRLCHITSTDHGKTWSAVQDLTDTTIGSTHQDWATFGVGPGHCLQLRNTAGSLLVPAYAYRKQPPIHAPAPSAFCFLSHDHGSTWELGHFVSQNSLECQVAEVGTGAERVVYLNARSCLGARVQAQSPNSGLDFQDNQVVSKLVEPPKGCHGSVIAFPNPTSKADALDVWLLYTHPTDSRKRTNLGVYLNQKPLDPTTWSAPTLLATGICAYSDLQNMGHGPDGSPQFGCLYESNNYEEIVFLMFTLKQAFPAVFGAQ",
  "test": "Sialidase kinetic constants with soluble sialylglycoconjugate substrates",
  "type": "biochemical, Chinese hamster",
  "protocol": "Fluorescent sialidase assays: Standard assay conditions for monitoring the enzyme activity during purification using the fluorescent substrate analog are: 1.3 mM 4-MUNeu5Ac, 50 mM phosphate buffer, pH 6.8, 0.3 mg bovine serum albumin and varying amounts of enzyme in a total volume of 30 μl. After addition of enzyme the samples are incubated at 37° C. in a shaking water bath for 5 minutes. The reaction is terminated and the fluorescence of the liberated umbelliferone is enhanced by the addition of 2 ml of 80 mM glycine-carbonate buffer, pH 9.7. Quantification of the product is made by measuring the fluorescence of the samples with excitation at 365 nm and emission at 450 nm using a standard of 4-methyl umbelliferone. A unit of enzyme activity is defined as a μmol/min of sialic acid liberated.\nSialidase assays with natural substrates: When natural substrates are tested with the purified enzyme, the amount of released sialic acid is measured using the thiobarbituric acid assay as modified by Uchida [Uchida et al. J. Biochem., 82:1425 (1977)] using sialic acid as standard. […] All samples are cleared by centrifugation (1,000×G, 10 min) prior to determining the absorbance at 540 nm.\nEnzyme kinetic parameters: Assay conditions (time and added enzyme) are modified for each substrate so that initial reaction rates are measured. […]",
  "data": [
    {"molecule": "rDeoxyribonuclease 1: encoded by a human-derived nucleotide sequence, was expressed in Chinese hamster ovary cells (protein, UniProt P24855 23-282, looked up) Deoxyribonuclease-1: LKIAAFNIQTFGETKMSNATLVSYIVQILSRYDIALVQEVRDSHLTAVGKLLDNLNQDAPDTYHYVVSEPLGRNSYKERYLFVYRPDQVSAVDSYYYDDGCEPCGNDTFNREPAIVRFFSRFTEVREFAIVPLHAAPGDAVAEIDALYDVYLDVQEKWGLEDVMLMGDFNAGCSYVRPSQWSSIRLWTSPTFQWLIPDSADTTATPTHCAYDRIVVAGMLLRGAVVPDSALPFNFQAAYGLSDQLAQAISDHYPVEVMLK", "values": [
      {"measurement": "Vmax", "setting": "apparent, standard assay conditions, average of duplicates, relative error about 10%", "value": 12, "unit": "µmol/min/mg"},
      {"measurement": "Km values compared (in words)", "setting": "transferrin versus deoxyribonuclease I", "value": "nearly identical"}
    ]}
  ]
}
